Source: patent US6413943 (CELL GENESYS, dated 2002)

What was measured:
Test in all cases: cell-based or functional assay
[1] = molecular target: CDC2/cyclin B complex (UniProt P06493 1-297)
[2] = molecular target: CDK2/cyclin A complex (UniProt P24941 1-298)
[3] = molecular target: CDK4/cyclin D1 complex (UniProt P11802 1-303; P24385 1-295)
[4] = molecular target: CDK2/cyclin E complex (UniProt P24941 1-298)

Chain of CDK4/cyclin D1 complex (P11802 whole entry, chain 1 of 2): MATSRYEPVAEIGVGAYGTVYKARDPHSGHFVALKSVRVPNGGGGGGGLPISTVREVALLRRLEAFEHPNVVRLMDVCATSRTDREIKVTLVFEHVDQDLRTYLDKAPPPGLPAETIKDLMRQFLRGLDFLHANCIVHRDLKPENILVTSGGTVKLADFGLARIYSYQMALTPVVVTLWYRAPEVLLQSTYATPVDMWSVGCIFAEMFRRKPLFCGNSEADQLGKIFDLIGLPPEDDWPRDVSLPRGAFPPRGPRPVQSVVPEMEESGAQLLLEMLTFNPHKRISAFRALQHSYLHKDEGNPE
Chain of CDK4/cyclin D1 complex (P24385 whole entry, chain 2 of 2): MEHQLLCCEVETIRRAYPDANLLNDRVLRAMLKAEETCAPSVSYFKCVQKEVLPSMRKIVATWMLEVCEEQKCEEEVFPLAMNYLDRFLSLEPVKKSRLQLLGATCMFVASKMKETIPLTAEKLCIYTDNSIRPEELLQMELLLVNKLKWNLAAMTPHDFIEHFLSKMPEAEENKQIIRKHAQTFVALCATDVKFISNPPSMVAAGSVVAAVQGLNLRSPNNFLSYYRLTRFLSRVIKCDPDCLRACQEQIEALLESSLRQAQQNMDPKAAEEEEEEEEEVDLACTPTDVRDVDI
Chain of CDC2/cyclin B complex (P06493 whole entry, one chain of several): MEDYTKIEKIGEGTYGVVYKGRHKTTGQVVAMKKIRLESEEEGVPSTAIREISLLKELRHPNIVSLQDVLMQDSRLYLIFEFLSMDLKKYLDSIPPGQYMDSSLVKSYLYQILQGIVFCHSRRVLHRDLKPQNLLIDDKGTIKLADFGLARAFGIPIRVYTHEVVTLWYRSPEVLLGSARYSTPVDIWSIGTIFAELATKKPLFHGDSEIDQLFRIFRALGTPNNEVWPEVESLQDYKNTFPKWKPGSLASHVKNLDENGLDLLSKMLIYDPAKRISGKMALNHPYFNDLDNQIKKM

- IC50, in vitro kinase activity (histone H1 phosphorylation) [1]: > 500 nM
- IC50, in vitro kinase activity [2]: > 500 nM
- IC50, in vitro kinase activity (GST-Rb phosphorylation) [3]: 250 nM
- IC50, in vitro kinase activity (GST-Rb phosphorylation) [4]: > 500 nM
B1: human p16 (other)
chain: MEPAAGSSMEPSADWLATAAARGRVEEVRALLEAGALPNAPNSYGRRPIQVMMMGSARVAELLLLHGAEPNCADPATLTRPVHDAAREGFLDTLVVLHRAGARLDVRDAWGRLPVDLAEELGHRDVARYLRAAAGGTRGSNHARIDAAEGPSDIPD
